This assay addresses T1, His‐Halo‐tagged Met1‐linked ubiquitin tetramer (human, UniProt P0CG48 1-76; P0CG48 1-76; P0CG48 1-76; P0CG48 1-76).
T1 construct: ubiquitin (76-residue mature product of the polyubiquitin precursor), repeat 1 of 4, joined head to tail through Met1; ubiquitin (76-residue mature product), repeat 2 of 4; ubiquitin (76-residue mature product), repeat 3 of 4; ubiquitin (76-residue mature product), repeat 4 of 4; Tag end read from the printed name Halo‐M1‐Ub4; Covalently coupled to HaloLink resin through the Halo tag; also called …
In words: pull-down; Halo‐tagged M1‐linked tetraubiquitin covalently coupled to HaloLink resin; 10 μl beads with 2 μg bacterially expressed HOIL‐1 protein in 0.5 ml PBS pH 7.4, 0.001% NP‐40, 1 mM TCEP, 0.01 mg/ml BSA, 3.5 h at 4°C; bound protein detected by Coomassie staining. Conditions: both partners purified.

T1 sequence (P0CG48 1-304, one chain of several): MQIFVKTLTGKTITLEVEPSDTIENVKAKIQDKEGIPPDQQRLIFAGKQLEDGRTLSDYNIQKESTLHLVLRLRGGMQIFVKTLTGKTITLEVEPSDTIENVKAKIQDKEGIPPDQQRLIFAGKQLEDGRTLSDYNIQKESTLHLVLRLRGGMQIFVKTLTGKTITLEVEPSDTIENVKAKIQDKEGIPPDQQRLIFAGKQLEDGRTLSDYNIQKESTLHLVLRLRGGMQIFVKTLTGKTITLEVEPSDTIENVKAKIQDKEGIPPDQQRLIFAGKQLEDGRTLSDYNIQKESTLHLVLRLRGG

B1: HOIL‐1 (haem‐oxidised IRP2 ubiquitin ligase‐1), full‐length untagged human, wild type (enzyme, UniProt Q9BYM8 1-510, looked up)
chain: MDEKTKKAEEMALSLTRAVAGGDEQVAMKCAIWLAEQRVPLSVQLKPEVSPTQDIRLWVSVEDAQMHTVTIWLTVRPDMTVASLKDMVFLDYGFPPVLQQWVIGQRLARDQETLHSHGVRQNGDSAYLYLLSARNTSLNPQELQRERQLRMLEDLGFKDLTLQPRGPLEPGPPKPGVPQEPGRGQPDAVPEPPPVGWQCPGCTFINKPTRPGCEMCCRARPEAYQVPASYQPDEEERARLAGEEEALRQYQQRKQQQQEGNYLQHVQLDQRSLVLNTEPAECPVCYSVLAPGEAVVLRECLHTFCRECLQGTIRNSQEAEVSCPFIDNTYSCSGKLLEREIKALLTPEDYQRFLDLGISIAENRSAFSYHCKTPDCKGWCFFEDDVNEFTCPVCFHVNCLLCKAIHEQMNCKEYQEDLALRAQNDVAARQTTEMLKVMLQQGEAMRCPQCQIVVQKKDGCDWIRCTVCHTEICWVTKGPRWGPGGPGDTSGGCRCRVNGIPCHPSCQNCH
notes: HOIL‐1 (RBCK1), human, full length (residues 1-510 by the printed construct limits); Tag end read from the printed name His6‐SUMO‐HOIL‐1; also called RBCK1; wild‐type HOIL‐1; source: E. coli BL21 (DE3), purified (tag removed with Ulp1; size exclusion chromatography or dialysis); not shown: His6, N-terminal, cleaved; SUMO, N-terminal, cleaved
As to B1, the binding result is on record as “binds”.

The values are drawn from publication PMC9016349, “HOIL‐1 ubiquitin ligase activity targets unbranched glucosaccharides and is required to prevent polyglucosan accumulation” (The EMBO Journal, 2022).
